Data as given in article PMC5758537.

Tests used:
[1] = molecular target: dopamine D2 receptor (rat, endogenous) (rat (endogenous in rat striatum)) (UniProt P61169); test: co-IP; rat NAc protein homogenates (300 ug), anti-D2R antibody overnight at 4 C, protein G/A, blot with anti-D1R; rats treated with saline or SKF 83959, with or without TAT-D1 (300 pmol, i.c.v.)
[2] = molecular target: dopamine D2 receptor (rat, endogenous) (rat (endogenous in rat striatum)) (UniProt P61169); test: FRET or BRET; in situ confocal FRET on rat brain sections, NAc (core and shell); anti-D1R-Alexa 488 (donor) and anti-D2R-Alexa 568 (acceptor) directly conjugated

UniProt P61169, sequence (P61169 whole entry): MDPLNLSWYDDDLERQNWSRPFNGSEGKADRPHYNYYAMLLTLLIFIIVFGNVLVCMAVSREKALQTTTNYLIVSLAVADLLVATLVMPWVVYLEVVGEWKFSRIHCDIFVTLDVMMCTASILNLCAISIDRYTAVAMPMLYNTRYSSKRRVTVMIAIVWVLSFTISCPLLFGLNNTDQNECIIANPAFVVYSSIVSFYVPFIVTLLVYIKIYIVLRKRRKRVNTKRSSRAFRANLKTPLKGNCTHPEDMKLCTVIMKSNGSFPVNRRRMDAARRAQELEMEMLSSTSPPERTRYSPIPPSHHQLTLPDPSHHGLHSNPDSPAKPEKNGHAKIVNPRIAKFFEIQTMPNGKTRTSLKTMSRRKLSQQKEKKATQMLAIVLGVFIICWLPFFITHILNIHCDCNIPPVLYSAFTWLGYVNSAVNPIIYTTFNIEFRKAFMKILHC

TAT-D1 peptide
percent decrease of D1R co-immunoprecipitated with D2R [1]: > 50%

dopamine D1 receptor (rat, endogenous) (from UniProt P18901 1-446)
FRET efficiency [2]: 0.36
